Measured values: the Human Domainome abundance scans (Beltran et al. 2025)

B1: Heterogeneous nuclear ribonucleoprotein U-like protein 2, residues 1 to 40; numbered along this chain, Q1KMD3 (parent)
chain: MEVKRLKVTELRSELQRRGLDSRGLKVDLAQRLQEALDAE
B2: Membrane-associated guanylate kinase, WW and PDZ domain-containing protein 3, residues 287 to 329; numbered along this chain, Q5TCQ9 (parent)
chain: MRDETLEPLPKNWEMAYTDTGMIYFIDHNTKTTTWLDPRLCKK

Variants of: B1
Test: abundance fitness (aPCA) (normalised: wild type 0, dead -1); higher = more abundant; growth selection in yeast, the domain comes from the species named
Details: Homo sapiens

Abundance fitness of substitutions, site by site:
E40: Y -0.518

Variants of: B2
Test: as above
Details: Homo sapiens

Abundance fitness of substitutions, site by site:
M1: I -0.152; N -0.213; Y -0.1; V -0.089; Q -0.253; L -0.074; E 0.001
M15: D -0.379; P -0.11; V -0.093; H -0.156; E -0.062
P10: E -0.456; V -0.816; H -0.677; I -0.854; W -0.837; T -0.462
L6: F -0.13; M -0.067; S 0.034; Y -0.156; H -0.249; I 0.141; G 0.001; V -0.024; W -0.108
E7: Q -0.04; M -0.145; N -0.238; R -0.084; G 0.013; D -0.113; V -0.09; L -0.115; A -0.076
R2: F -0.171; N -0.021; I -0.122; G -0.054; S -0.164; L -0.072; T -0.002
H28: A -0.323; S -0.28; V -0.273; E -0.511; T -0.214; M -0.386; P -0.364; R -0.164; I -0.328; G -0.275
L40: A -0.019; Q -0.014; T -0.085; Y -0.193; N 0.041; G -0.028; R -0.02
C41: D -0.006; V 0.02; F -0.044; I 0.059; L -0.013; R -0.021; Y -0.005; A 0.058; W 0.007; Q 0.04; P 0.043; H 0.051
P8: W -0.367; C -0.332; V -0.187; E -0.078; A -0.065
I23: C 0.002; D -0.32; N -0.12; S -0.068; W -0.277; Q 0.042; M -0.006; P -0.001
R39: S -0.259; V -0.301; M -0.33; C -0.322; T -0.22; N -0.476; I -0.332; A -0.233; E -0.244
G21: V -1.18; M -0.46; W -0.782; S -0.487; A -0.312; D -0.241; T -0.689
L9: A -0.691; V -0.337; C -0.721; E -0.566; Q -0.566; R -0.639
P38: H -0.806; R -0.954; D -0.854; G -0.902; F -0.95; T -0.897; Y -1.17
K43: H -0.036; W -0.044; Q 0.136; V -0.045
K42: A 0.018; G -0.014; F -0.242; N -0.168; T -0.029; P -0.094; R -0.038; D 0.002; V -0.099; S -0.063
N12: C -0.257; I -0.96; K -0.155; V -0.89; T -0.438; G 0.018; S -0.213; A -0.191; M -0.229; D -0.081
T18: A -0.151; S -0.128; K -0.539; L -0.471; C -0.223; P -1.03; W -0.676; M -0.335
I26: S -0.634; T -0.437; C -0.352; P -0.868; D -0.659; Q -0.485; R -0.321; E -0.543; W -0.648
D27: T -1.08; R -1.03; Y -0.119; K -0.98; A -0.789; C -0.403; W -1.07; G -0.903
A16: H -0.514; Q -0.15; N -0.318; K -0.067; E -0.278; G -0.149
D3: T -0.12; W -0.336; E -0.039; A -0.089; S -0.067; Q -0.074; K -0.046; G -0.065; C -0.164
N29: I -0.194; H -0.248; G -0.069; F -0.152; C -0.132; A -0.074; E -0.03; S -0.103; M -0.142; V -0.094; D -0.141; Q -0.089
D37: R -0.263; E -0.556; H -0.166; I -1.04; G -0.557; P -0.168; S -0.188
Y24: F -0.146; A -0.723; L -0.61; Q -0.582; I -0.678; E -0.53
E4: F -0.097; C -0.062; K -0.107; Q -0.04; H -0.174; R -0.091; L -0.09; P -0.095; G -0.113
Y17: W -0.043; E 0.031; F -0.043; P -0.376; N -0.194; H -0.121; K -0.03; G -0.199
T5: G -0.05; W -0.303; K 0.072; R -0.064; A -0.04; Y -0.19; Q 0.012
T34: Y -0.982; W -0.743; V -0.924; G -0.667; R -0.71; M -0.62
L36: A -0.044; E -0.097; W -0.061; G -0.144; R -0.013; M -0.001
D19: P -0.07; E -0.001; Q -0.055; S -0.019; T -0.067
T30: M -0.21; E -0.265; K -0.155; G -0.314; C -0.271; S -0.051; D -0.281
E14: K -0.262; Y -0.368; F -1.06; S -0.12; G -0.224; V -0.346; I -0.39; H -0.429; A -0.132; Q -0.087
K31: I -0.674; P -0.812; D -0.205; Q -0.004; C -0.09; G -0.09; E -0.035; T -0.214; Y -0.369
F25: G -0.57; L -0.82; V -0.989; P -0.679; I -0.557; S -0.616; D -0.516; E -0.565
K11: N -0.118; T -0.068; E 0.024; F -0.21; C -0.137; S -0.068; R -0.049; A -0.033; P 0.007
T20: D -0.054; G -0.025; I -0.24; W -0.328; Y -0.256; C -0.077
T33: V -0.298; S -0.187; N -0.418; M -0.315; R -0.351
T32: W -0.52; C -0.101; G -0.357; A -0.207; V -0.082; M -0.071; R -0.206; I -0.11; E -0.328
M22: C -0.028; D 0.084; R -0.043; L -0.043; G 0.006; E 0.144; Y 0.004; P -0.62; H -0.137
W13: V -0.303; R -0.634; P -0.715; D -0.773; T -0.475; S -0.698; A -0.668; I -0.431
W35: Y 0.126; S -0.199; C -0.222; P -0.34; F 0.074; E -0.361; N -0.339; A -0.248; I -0.257
